Laboratory results as given in a protein production outcome set (Wang et al. 2014).

Experiment: label from the status in PepcDB records

Row | Sequence | protein production
1 | MRKLRKLLLFSTVLFVVFTQLFGFIITVDAAETATINLSAEKQVIRGFGGMNHPVWISDLTPQQRDTAFGNGEGQLGFTILRIHVDENRNNWSKEVATARRAIELGAIVFASPWNPPSNMVETFTRNGVPNQKRLRYDKYGDYVQHLNDFVAYMKSNGVDLYAISVQNEPDYAHEWTWWTPQEMLRFMRDYAGQINCRVMAPESFQYLKNMSDPILNDPQALANLDILGAHFYGTTVNNMPYPLFEQKGAGKELWMTEVYVPNSDSNSADRWPEALEVAHNMHNALVEGNFQAYVWWYIRRSYGPMKEDGTISKRGYMMAHYSKFVRPGYVRVDATKNPTYNVYLSAYKNKKDNSVVAVVINKSTEAKTINISVPGTSIRKWERYVTTGSKNLRKESDINASGTTFQVTLEPQSVTTFVGGGSSEPQIPVERNAFSKIECEEYNATNSSTVQVVGTGTGSGLGYIENGNYFAYKNINFGNGANSFKIRAATTGTPKIEIRLGSPTGTLAGTLQVAATGGFNAYEEQSCSINKITGVQDVYLVFGGAVNVDWFTFESKQEPTFKYGDLNGDGNVNSTDSTLMSRYLLGIITTLPAGEKAADLNGDGKVNSTDYNILKRYLLKYIDKFPVES | failed
2 | MAIDPNSIGAVTEPMLFEWTDRDTLLYAIGVGAGTGDLAFTTENSHGIDQQVLPTYAVICCPAFGAAAKVGTFNPAALLHGSQGIRLHAPLPAAGKLSVVTEVADIQDKGEGKNAIVVLRGRGCDPESGSLVAETLTTLVLRGQGGFGGARGERPAAPEFPDRHPDARIDMPTREDQALIYRLSGDRNPLHSDPWFATQLAGFPKPILHGLCTYGVAGRALVAELGGGVAANITSIAARFTKPVFPGETLSTVIWRTEPGRAVFRTEVAGSDGAEARVVLDDGAVEYVAG | not failed
3 | MGVLAEVYEMLNTCNRCGFCHTACKTYKVDGAETMVSRGRVQLIKAVADGVIEADADYEDSINSCLLCGECAVACPSGVSAKELVMAARRDLKLRHGLEHHHHHH | not failed
4 | MHSSSRASFTTRGDIRRQVEGFSASGERNKDTVVDLSTFFAERGYSNNQAPTKYWEEKLVTIGNVVVPKWVPVKERNSSNKQKEGEDEVFIGFEAIYYPEQPPERQPITLYQEENKVEEEEQSRE | not failed
5 | MAAEHGLILDFTTVLGASALGGYLANRLRQPVLLGYLVTGLALGPYGLKLLSDVPRIQSLASIGVAFLLFALGVEFSLTELRRVKNIAINGSLLQIGLTTALVAFLTITLGWVDNLTQGIFLGVVLSLSSTAVVLKTLGERGETNTLHGQVMLAILIAQDLALGLILAFLPVLNQPERLVWALGIALLKVLLFLALAIALGRWIVPKLISNVAATESTELFVLTVISLCLSVALVTAKLGLSIEMGAFVAGLMVSEIDHADHALAKVLPLRDTFACLFFASIGMLIDPIALMQNLGLVLGLVTLVMLGKAIVVMPIILKFGYSLKTTILTSLGINQIGEFSFVLALAGLQLQLIPEKTYILLLETTAITLVLTPISLNIAPQLIERLTQIPFFAQSLRQFTEPNILSIPETISGHVVVAGYGRVGQVIVNILLNQGYVVLVIENSEAAIQRLRMQRIPYIFGDADSELVLEKIHLETAKALAIALPDPASSRLLLKRALAIAPKLDVIARSHHDNEIDLLTQMGAKEVVQPEFEAALELSAHLLSTLGEAKSQIDTVISDIRTDRYRSIRPRR | failed
6 | MKRMLAWLYAPLVFAGFIGAGVWWMSAGPASASGLLGVFGAALGVSFLAEWCLPYEPGWNRSQGDRLRDSLHALVNESLNALGLLALPGLVALLAHDGLWPQGWPLWGQLLLAIVIADCGITLAHYASHRLAWLWRLHAVHHSVQRMYGFNGLLKHPLHQLIEASAGLLPLVLLGIPLPVAQLLALAIAVQLLLQHSNVDMRLGPLRWIFAWAPVHRFHHMKYGRAGDVNFGLFFNLWDWLLGTAFYRDDYCMRQGDLGIGSRADYPVDYWPQLLEPFKAQRYGAEPVVPEQLRRRVRPASEA | failed
7 | MPVAEQPYHHGSLRRVLLARAESTLEKDGVDGLSLRQLAREAGVSHAAPSKHFRDRQALLDALAESGFLRLTAALERAVEEAESHARARFAALAGAYVSFALAHRELLALMYGNKHAPGAASQVVEAGHASMDLTVRIVTEAQAAGDIGPGDASRIALVAFATFHGIATLAAGGMLDGAPVDEVVTAASDTFWRGLAQA | not failed
8 | MTMIEPDPADFEPIHPYSLARISHVALQAGAVLAQSGASVRVVHEGARMVAEGLGVEVLGMRSGYASFEITLARGHHSFTRMTQIGPHGVNHRLDFAVRDLLKRAARGDMTPDAIEAELKRLQSETPRHPPWLVAIATGAACAAFGRLLGSDWLSFGPVLAAASIGQGVRHLLLGRRFNVFVVAAIVGCISAALGGLGARLIGSSTTELAMMASILLLVPGVPSTNAQTDVMDGYPTMGSARAVTVIMIMVFAVTGLWLAEFVLRIHT | failed
9 | MSNSTEPALAIITVTYSPGKHLGAFLSSVKEATAQPTYVVLADNGSVDGVPEAAAQADPSVEFFPTGGNIGYGSAINAAVRKLAPLRESGKINAEFFVLSNPDVVFEPGSIDAMVQCASRHPQAADIGPYIRQSDGSAYPSARQVPTIKNGVGHALFSSVWPSNPWSRAYRDNRDMTTERTAGWLSGSCLLVRWDAFEQIGGFDERYFMYMEDVDLGDRFGRAGFDNVFCPDAVITHAVGHAAGKHPEKMLPAHHDSAYRFQADRHPGLRYLPLRVLLRVGLKLRAVVAVAAAKFKLEHHHHHH | not failed
10 | LRASEESFRQAFEYAPSGMAIAEMGGDQHGRILRTNDALCRLLGRPASAMRRYSFSDLVHPEDIGTLLRTSAEGGRAELRLGRRDGTYVWVSLRNSVVADAADGPRFLLTHVEDIEERKRRELQLAHRASHDSLTGLPNSAELRSRLSARLCRRPQSAELGAVESLDAAYAHGQYTTEHPAAYDTSGHGEQPGHGHGFDFTQGPGPYDAFDHHVHTVAPEGQTDDGTKGLAVLFCDLDGFKSINDRFGH | failed
11 | ETNEITIGITVTTTGPAAALGIPERNALEFVAKEIGGHPLKVIVLDDGGDPTAATTNARRFVTESKADVIMGSSVTPPTVAVSNVANEAQVPHIALAPLPITPERAKWSVAMPQPIPIMGKVLYEHMKKNNIKTVGYIGYSDSYGDLWFNDLKKQGEAMGLKIVAEERFARPDTSVAGQVLKLVAANPDAILVGASGTAAALPQTSLRERGYKGLIYQTHGAASMDFIRIAGKSAEGVLMASGPVMDPEGQDDSALTKKPGLELNTAYEAKYGPNSRSQFAAHSFDAFKVLERVVPVALKTAKPGTQEFREAIRKALVSEKDIAASQGVYSFTETDRYGLDDRSRILLTVKDGKYVMVK | not failed
12 | SLHEEADHRVTDHGPRPFVVNIEDETKRNRAFRRALWTGDHLQVTLMSIQVGEDIGLEIHPHLDQFLRVEEGRGLVQMGHRQDNLHFQEEVFDDYAILIPAGTWHNVRNTGNRPLKLYSIYAPPQHPHGTVHETKAIAMAAEEHHHL | not failed
13 | MRLGPAATSPSSGPRILPPAAHGDPRTAALPRATHLQIHDRRALSGLRDHPHLESVHLKGDFTLADLKALPTTLRHLDLSECTGSAKSFRAIAYLAGLPLESLNVAGAEIGDGGARLLAANPSLKSLNAASGGISASGARMLAESPTLESLDLTQNAIGDAGAQALAGSRSLRHLAVRNGLVTDLGTRALALNPALVSLDLGNLVTETGNQVEQDGYDKTANNITAQGAWALAQNRSLKSLSVQGNDLCGDDGVRALARNRTLTSLNVAFTNMTSASAKALADNPVLTSLSVRWNYGLDDAGAMELAMSRSLTSLDARDTGMSARGALALAANARISVWHDHANPVRAPLGEPPLSGLAGDPGQASRTAPGGAIWSSAAQARHVSAEAPANSAMTASTREGFALIDPFFNRVARESGLNVQAPQEMPWTRLRPSASEANHGNAGAHGASAEGLASSRMAASIREGLGLIDQYVDRMGREYGLPVRAPAAQPDSAAPEATQPTLPADVWQTIAAQADPRVRRTLSTVSKPLRAAALAATKHLTVWDKAAFSRLRNYPALESLSFHGPLSLADLRALPPSVRHLDLSGCTGSAVSEAGLAYLARLPLASLDLSDTGIGNRGAQALAASASLTSLNLSGNGIGTAGAEALGRNTVLTALDISANPIRNAGAQALAGSRSLTSLELRDTGIEDGGIEALAANTVLRSLDISGNDLSDQSAAALAANRTLTSLKANGCGLTNDMAQQLARIRSLRTLEVGSNSIGDAGVLTIARNASLRSLNLSRNPITPQGLYPLALSRTLKSLDVSRIGCGDRGALLLSGNRALTSLKLGFNRVSSEGARRLAANRTLVSLDLRGNTIDVAAARALANAEPLASLNVSDCRLDDAVACALAESRTLTSLDVSWNRLSHRAARALANNPVLASLYISHNDIGPEGAQALADSASLTFLDARANRIGEAGARLLEANTRMRGTPQNPHFLAQDVPE | failed
